The target in experiment [1] is recombinant human IL-5 protein (human) (UniProt P05113). Briefly: cell-based or functional assay.
Experiment [2] shares this target. As to the kind of experiment: ELISA, biotin-human IL-5 on streptavidin plate, Ab 0.0002 nM.
The target is the same in experiment [3]. Briefly: ELISA, biotin-human IL-5 on streptavidin plate, Ab 0.0009 nM.
The target is the same in experiment [4]. As to the kind of experiment: ELISA, biotin-human IL-5 on streptavidin plate, Ab 0.0043 nM.
Experiment [5] shares this target. As to the kind of experiment: ELISA, biotin-human IL-5 on streptavidin plate, Ab 0.0213 nM.
The target is the same in experiment [6]. As to the kind of experiment: ELISA, biotin-human IL-5 on streptavidin plate, Ab 0.1067 nM.
For experiment [7] the target is unchanged. Briefly: ELISA, biotin-human IL-5 on streptavidin plate, Ab 0.5333 nM.
Experiment [8] has the same target. Briefly: ELISA, biotin-human IL-5 on streptavidin plate, Ab 2.6667 nM.
Experiment [9] has the same target. As to the kind of experiment: ELISA, biotin-human IL-5 on streptavidin plate, Ab 13.3333 nM.
The target is the same in experiment [10]. As to the kind of experiment: FACS blocking: biotin-IL-5 bound to CHOK1 IL-5Ra/CSF2RB cells, Ab 0.0004 nM.
For experiment [11] the target is unchanged. As to the kind of experiment: FACS blocking: biotin-IL-5 bound to CHOK1 IL-5Ra/CSF2RB cells, Ab 0.0021 nM.
Experiment [12] shares this target. Briefly: FACS blocking: biotin-IL-5 bound to CHOK1 IL-5Ra/CSF2RB cells, Ab 0.0107 nM.
The target is the same in experiment [13]. Briefly: FACS blocking: biotin-IL-5 bound to CHOK1 IL-5Ra/CSF2RB cells, Ab 0.0533 nM.
For experiment [14] the target is unchanged. As to the kind of experiment: FACS blocking: biotin-IL-5 bound to CHOK1 IL-5Ra/CSF2RB cells, Ab 0.2667 nM.
The target is the same in experiment [15]. As to the kind of experiment: FACS blocking: biotin-IL-5 bound to CHOK1 IL-5Ra/CSF2RB cells, Ab 1.3333 nM.
Experiment [16] has the same target. As to the kind of experiment: FACS blocking: biotin-IL-5 bound to CHOK1 IL-5Ra/CSF2RB cells, Ab 6.6667 nM.
For experiment [17] the target is unchanged. Briefly: FACS blocking: biotin-IL-5 bound to CHOK1 IL-5Ra/CSF2RB cells, Ab 33.3333 nM.
Experiment [18] has the same target. Briefly: SPR, human IL-5 immobilized on CM5 chip, chimeric antibody as analyte, 1:1 global fit.
Experiment [19] has as its target recombinant human IL-5 protein with His tag (human) (UniProt P05113). Briefly: ELISA, biotin-human IL-5 on streptavidin; antibody 0.0002 nM.
The target is the same in experiment [20]. Briefly: ELISA, biotin-human IL-5 on streptavidin; antibody 0.0009 nM.
For experiment [21] the target is unchanged. Briefly: ELISA, biotin-human IL-5 on streptavidin; antibody 0.0043 nM.
Experiment [22] has the same target. Briefly: ELISA, biotin-human IL-5 on streptavidin; antibody 0.0213 nM.
The target is the same in experiment [23]. As to the kind of experiment: ELISA, biotin-human IL-5 on streptavidin; antibody 0.1067 nM.
Experiment [24] shares this target. Briefly: ELISA, biotin-human IL-5 on streptavidin; antibody 0.5333 nM.
Experiment [25] has the same target. Briefly: ELISA, biotin-human IL-5 on streptavidin; antibody 2.6667 nM.
For experiment [26] the target is unchanged. As to the kind of experiment: ELISA, biotin-human IL-5 on streptavidin; antibody 13.3333 nM.

Where “and” joins values, the source holds several entries; their conditions need not be identical. Equal entries are not always repeated.

B1: 154F10G8 mouse-human chimeric antibody (antibody, human IgG4, V domains shown)
VH: QVQLQQPGAELVKPGASVKLSCKASGYTFTSYWITWVKQRPGQGLEWIGDIYPGSGSTFYNEKFKSEATLTVDTSSSTAYMQLSSLTSEDSAVFYCSTETTLGYWGQGTTLTVSS
VL: DVLMTQTPLSLPVSLGDQASISCRSSQSIVHNNGNTYLEWYLQKPGQSPKLLIYKVSNRFSGVPDRFSGSGSGTDFTLKISRVEAEDLGVYYCFQGSHVPFTFGSGTKLEIK
For the molecule B1, in experiment [1], the RLU, CTLL-2 proliferation with IL-5, Ab 0.000170667 nM was 59900 RLU and 54900 RLU; the RLU, CTLL-2 proliferation with IL-5, Ab 0.000853333 nM was 59800 RLU and 56700 RLU; the RLU, CTLL-2 proliferation with IL-5, Ab 0.004266667 nM is 64400 RLU and 61300 RLU; the RLU, CTLL-2 proliferation with IL-5, Ab 0.02133333 nM was 62100 RLU and 59300 RLU. Moreover, in experiment [1], the RLU, CTLL-2 proliferation with IL-5, Ab 0.1066667 nM was 54800 RLU and 52000 RLU; the RLU, CTLL-2 proliferation with IL-5, Ab 0.5333334 nM is 44900 RLU and 38200 RLU; the RLU, CTLL-2 proliferation with IL-5, Ab 2.666667 nM was 28000 RLU and 25400 RLU; the RLU, CTLL-2 proliferation with IL-5, Ab 13.33333 nM is 16200 RLU and 17000 RLU. In [1], the RLU, CTLL-2 proliferation with IL-5, Ab 66.66666 nM was 12200 RLU and 12400 RLU; the RLU, CTLL-2 proliferation with IL-5, Ab 3.41333E-05 nM is 60700 RLU and 50200 RLU; the RLU, TF-1 proliferation with IL-5, Ab 0.00001 nM was 110000 RLU and 113000 RLU; the RLU, TF-1 proliferation with IL-5, Ab 0.00003 nM is 111000 RLU and 109000 RLU. In experiment [1], the RLU, TF-1 proliferation with IL-5, Ab 0.00017 nM turned out to be 111000 RLU; the RLU, TF-1 proliferation with IL-5, Ab 0.00085 nM was 109000 RLU and 108000 RLU; the RLU, TF-1 proliferation with IL-5, Ab 0.00427 nM is 109000 RLU and 114000 RLU; the RLU, TF-1 proliferation with IL-5, Ab 0.02133 nM is 99100 RLU and 101000 RLU. In experiment [1], the RLU, TF-1 proliferation with IL-5, Ab 0.10667 nM is 81400 RLU and 82800 RLU; the RLU, TF-1 proliferation with IL-5, Ab 0.53333 nM was 60400 RLU and 56800 RLU; the RLU, TF-1 proliferation with IL-5, Ab 2.66667 nM was 45200 RLU and 42600 RLU; the RLU, TF-1 proliferation with IL-5, Ab 13.33333 nM is 38500 RLU and 40000 RLU. Further, the OD450 nm in experiment [2] is 0.083 OD450 nm and 0.098 OD450 nm. Moreover, the OD450 nm in experiment [3] was 0.081 OD450 nm and 0.087 OD450 nm. The OD450 nm in [4] is 0.108 OD450 nm and 0.106 OD450 nm. Further, the OD450 nm in experiment [5] is 0.224 OD450 nm and 0.221 OD450 nm. In [6], the OD450 nm is 0.716 OD450 nm and 0.77 OD450 nm. Also, the OD450 nm in [7] was 1.93 OD450 nm and 2 OD450 nm. For the same molecule, the OD450 nm in experiment [8] is 2.96 OD450 nm and 3.01 OD450 nm. The OD450 nm in [9] was 3.7 OD450 nm and 3.71 OD450 nm. Further, the Fluorescence intensity in experiment [10] was 91 MFI. Moreover, the Fluorescence intensity in [11] is 88 MFI. The Fluorescence intensity in experiment [12] is 88 MFI. In addition, the Fluorescence intensity in experiment [13] came to 87 MFI. Moreover, in [14], the Fluorescence intensity amounted to 67 MFI. Further, the Fluorescence intensity in [15] worked out at 46 MFI. Also, in experiment [16], the Fluorescence intensity worked out at 39 MFI. Also, in [17], the Fluorescence intensity came to 35 MFI. In [18], the Kd came to 0.188 nM, the koff was determined as 5.24e-05 s⁻¹ and the kon worked out at 279000 M⁻¹ s⁻¹.

B2: 154F10G8 (murine hybridoma antibody) (antibody, V domains shown)
VH: QVQLQQPGAELVKPGASVKLSCKASGYTFTSYWITWVKQRPGQGLEWIGDIYPGSGSTFYNEKFKSEATLTVDTSSSTAYMQLSSLTSEDSAVFYCSTETTLGYWGQGTTLTVSS
VL: DVLMTQTPLSLPVSLGDQASISCRSSQSIVHNNGNTYLEWYLQKPGQSPKLLIYKVSNRFSGVPDRFSGSGSGTDFTLKISRVEAEDLGVYYCFQGSHVPFTFGSGTKLEIK
For B2, the OD450 nm in experiment [19] was 0.079 and 0.07; in experiment [20] it was 0.093 and 0.092; in experiment [21], 0.205 and 0.193; in experiment [22] it was 0.595 and 0.64; in [23], 1.69 and 1.71; in experiment [24], 2.76 and 2.69. The OD450 nm in experiment [25] is 3.23 and 3.17; in [26] it was 3.3 and 3.49.

The values are drawn from patent US20220010008A1.
